Assay results: patent US20240084003A1

Experiments:
[1] = biological target: human CD22 (full length, on cells) (human) (UniProt P20273); assay: FACS on CHO-K1-human CD22 clone 1D9
[2] = biological target: human CD22 (full length, on cells) (human) (UniProt P20273); assay: FACS on CHO-K1-human CD22 clone 1G5
[3] = biological target: human CD22 (full length, on cells) (human) (UniProt P20273); assay: FACS on CHO-K1-human CD22 clone 2C4
[4] = biological target: human CD22 (full length, on cells) (human) (UniProt P20273); assay: FACS on Raji cells, control of the HA22 row
[5] = biological target: human CD22 (full length, on cells) (human) (UniProt P20273); assay: FACS on Raji cells, control of the m971 row
[6] = biological target: monkey CD22 on HEK293T-monkey CD22 cells (monkey); assay: FACS, HEK293T-monkey CD22 cells
[7] = biological target: human CD22, endogenous on Raji cells (human) (UniProt P20273); assay: FACS, Raji cells
[8] = biological target: human CD22, full length, on CHO-K1-human CD22 2C4 cells (human) (UniProt P20273); assay: FACS, CHO-K1-human CD22 2C4 cells
human CD22, full length, on CHO-K1-human CD22 2C4 cells (human), sequence (P20273 20-847 limits assumed): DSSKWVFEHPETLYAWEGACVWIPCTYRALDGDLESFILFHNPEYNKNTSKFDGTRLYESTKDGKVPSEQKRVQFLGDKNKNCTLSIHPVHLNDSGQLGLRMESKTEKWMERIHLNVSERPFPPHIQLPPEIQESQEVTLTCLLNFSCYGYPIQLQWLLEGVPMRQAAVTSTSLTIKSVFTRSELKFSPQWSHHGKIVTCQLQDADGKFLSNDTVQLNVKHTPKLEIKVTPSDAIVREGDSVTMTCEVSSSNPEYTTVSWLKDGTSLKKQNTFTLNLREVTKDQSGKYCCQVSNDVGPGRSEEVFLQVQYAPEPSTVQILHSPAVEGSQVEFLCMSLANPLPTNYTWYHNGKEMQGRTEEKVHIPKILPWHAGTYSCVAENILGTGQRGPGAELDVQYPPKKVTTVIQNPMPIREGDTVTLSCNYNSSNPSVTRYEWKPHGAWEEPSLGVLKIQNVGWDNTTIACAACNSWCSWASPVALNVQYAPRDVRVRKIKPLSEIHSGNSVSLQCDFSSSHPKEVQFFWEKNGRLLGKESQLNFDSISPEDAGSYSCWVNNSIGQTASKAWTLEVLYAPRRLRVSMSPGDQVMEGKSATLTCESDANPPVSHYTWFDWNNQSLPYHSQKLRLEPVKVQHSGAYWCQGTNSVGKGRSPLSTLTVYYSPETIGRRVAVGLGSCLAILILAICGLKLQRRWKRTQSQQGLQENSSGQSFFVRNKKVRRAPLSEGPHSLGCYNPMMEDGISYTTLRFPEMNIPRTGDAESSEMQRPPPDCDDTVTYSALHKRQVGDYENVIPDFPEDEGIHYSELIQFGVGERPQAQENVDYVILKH

human CD22 (full length, on cells) (human), sequence (P20273 20-847 limits assumed): as above
human CD22, endogenous on Raji cells (human), sequence (P20273 20-847): as the sequence (P20273 20-847 limits assumed) above
monkey CD22 on HEK293T-monkey CD22 cells (monkey), sequence (chain, as listed by the source limits assumed): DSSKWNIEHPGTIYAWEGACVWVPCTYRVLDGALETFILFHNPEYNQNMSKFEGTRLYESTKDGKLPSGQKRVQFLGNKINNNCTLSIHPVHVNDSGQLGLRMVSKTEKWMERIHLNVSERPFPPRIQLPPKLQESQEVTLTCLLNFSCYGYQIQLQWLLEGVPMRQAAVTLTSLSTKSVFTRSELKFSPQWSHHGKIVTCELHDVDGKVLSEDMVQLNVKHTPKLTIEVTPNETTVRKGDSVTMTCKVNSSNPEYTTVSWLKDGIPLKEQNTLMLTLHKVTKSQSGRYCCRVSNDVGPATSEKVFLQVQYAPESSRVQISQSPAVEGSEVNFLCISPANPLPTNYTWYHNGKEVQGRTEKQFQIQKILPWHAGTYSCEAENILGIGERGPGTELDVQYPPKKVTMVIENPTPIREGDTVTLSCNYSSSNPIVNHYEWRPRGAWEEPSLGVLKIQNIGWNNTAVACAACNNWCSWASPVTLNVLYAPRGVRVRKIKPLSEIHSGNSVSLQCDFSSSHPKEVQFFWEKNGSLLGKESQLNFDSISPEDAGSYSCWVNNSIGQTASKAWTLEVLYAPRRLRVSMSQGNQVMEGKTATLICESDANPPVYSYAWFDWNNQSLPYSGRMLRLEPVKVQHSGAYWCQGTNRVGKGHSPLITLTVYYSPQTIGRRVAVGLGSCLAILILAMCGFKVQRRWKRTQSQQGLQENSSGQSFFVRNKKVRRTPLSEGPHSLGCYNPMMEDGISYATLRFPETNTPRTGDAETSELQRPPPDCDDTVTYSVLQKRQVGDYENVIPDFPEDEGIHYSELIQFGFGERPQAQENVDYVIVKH

With IgG subtype control (antibody) as the substance, how does the Cell mean fluorescence intensity [1] read?
The Cell mean fluorescence intensity was 66 MFI.

And the Cell mean fluorescence intensity [2]?
Its Cell mean fluorescence intensity is 66 MFI.

What about the Cell mean fluorescence intensity [3] of the same substance?
The Cell mean fluorescence intensity was 66 MFI.

And the Cell mean fluorescence density [4]?
The Cell mean fluorescence density was 44 MFI.

What about the Cell mean fluorescence density [5] of the same substance?
The Cell mean fluorescence density was 44 MFI.

How did the Maximum mean fluorescence intensity [6] turn out when anti-hel-hIgG1 (antibody) was run?
Its Maximum mean fluorescence intensity is 129 MFI.

What does the source list for “anti-hel-hIgG1 (negative control antibody against chicken egg lysozyme)”?
Maximum mean fluorescence intensity [7]: 564 MFI; Maximum mean fluorescence intensity [8]: 150 MFI
